This data set can be described thus: protein stability index of a GFP-peptide fusion (yeast GPS) (PSI 1-4); higher = more stable; sorted into four equal gates, so the index is relative within each strain. The gist of the method:
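The protein stability index of a peptide was calculated by multiplying its read frequency in each gate by that gate's number and adding the products. The peptides were tiled 17-residue stretches of yeast proteins, fused downstream of GFP on a Cherry-expressing plasmid and carried in yeast as a pooled library. Mid-log cultures in leucine-free medium were sorted into four equal gates by GFP/Cherry ratio, and each gate's plasmids were PCR-amplified and Illumina-sequenced.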

± gives the uncertainty stated by the source.

Turning to VADEEANIELTWAEGTF [RPC37], the protein stability index by setting is: (doa10∆) 2.06 ± 0.067; (pdr5∆) 2.98 ± 0.087; (san1∆) 1.81 ± 0.097; (ubr1∆) 2.52 ± 0.071.
The sequence VAEIEKTADVKRQYVKQ [RPL20A] registered a protein stability index (doa10∆) of 3.33 ± 0.13, a protein stability index (pdr5∆) of 3.2 ± 0.088, a protein stability index (san1∆) of 2.94 ± 0.13 and a protein stability index (ubr1∆) of 3.1 ± 0.079.
For the sequence VAIDQDKITLHDEKTLA [SIR4], the protein stability index by setting is: (doa10∆) 2.01 ± 0.097; (pdr5∆) 2.22 ± 0.096; (san1∆) 2.26 ± 0.17; (ubr1∆) 2.71 ± 0.08.
For VAMCFVINKLDRLILDL [SNU114] the same measures were 2.23 ± 0.055, 2.24 ± 0.056, 2.15 ± 0.096 and 2.77 ± 0.04.
Take VARIPRVGGGGTGRSGQ [RPL4A]: the protein stability index is, setting by setting: (doa10∆) 3.46 ± 0.15; (pdr5∆) 3.39 ± 0.13; (san1∆) 3.48 ± 0.072; (ubr1∆) 2.57 ± 0.086.
The matching figures for VASADYESQTFSSKNEW [PRP8]: 2.83 ± 0.098, 3.4 ± 0.19, 2.85 ± 0.18 and 2.89 ± 0.13.
For VASLSKRNKLLTIFDSV [YJL039C/NUP192] the same measures were 1.98 ± 0.059, 1.93 ± 0.048, 2.28 ± 0.063 and 1.89 ± 0.048.
For VATEPLLDILVKGETRI [PRP8] the same measures were 2.43 ± 0.057, 2.41 ± 0.044, 2.94 ± 0.06 and 1.8 ± 0.032.
In the case of VCIRPSVMMQDSPASNE [RPO31], the protein stability index (doa10∆) turned out to be 1.63 ± 0.085, the protein stability index (pdr5∆) is 2.08 ± 0.1, the protein stability index (san1∆) came to 1.94 ± 0.11 and the protein stability index (ubr1∆) was determined as 2.06 ± 0.099.
Turning to VDAITRCYQPFELFDNK [SNU114], the protein stability index (doa10∆) worked out at 3 ± 0.073, the protein stability index (pdr5∆) came to 3.06 ± 0.068, the protein stability index (san1∆) turned out to be 2.96 ± 0.049 and the protein stability index (ubr1∆) was found to be 3 ± 0.068.
For VDFEKFETFLVDVNNKF [SIN4] the same measures were 3.23 ± 0.07, 3.34 ± 0.059, 3.51 ± 0.037 and 3.31 ± 0.052.
For VDIQIINQYQLLYNLKN [SWI1] the same measures were 1.68 ± 0.031, 1.54 ± 0.041, 1.49 ± 0.086 and 1.33 ± 0.033.
On to VDKNGAHLYMLEPSGSY [PRE10], for which the protein stability index reads like this: (doa10∆) 2.04 ± 0.057; (pdr5∆) 2.19 ± 0.064; (san1∆) 2.92 ± 0.063; (ubr1∆) 2.52 ± 0.058.
VDNDNWVYKTKGDGMTS [RPN1]: the protein stability index (doa10∆) came to 3.12 ± 0.1, the protein stability index (pdr5∆) is 3.27 ± 0.065, the protein stability index (san1∆) came out at 3 ± 0.071 and the protein stability index (ubr1∆) was determined as 3.1 ± 0.11.
Regarding VDNIVNKYQYSLKQYAG [SRP68], the protein stability index runs as follows: (doa10∆) 3.09 ± 0.084; (pdr5∆) 3.08 ± 0.076; (san1∆) 2.71 ± 0.068; (ubr1∆) 2.99 ± 0.055.
VDNVTLESYKTQAKKLY [SRP72]: the protein stability index runs as follows: (doa10∆) 3.02 ± 0.11; (pdr5∆) 2.87 ± 0.14; (ubr1∆) 2.89 ± 0.11.
Turning to VDPFDSDEEESVLDEQE [SNU114], the protein stability index runs as follows: (doa10∆) 3.36 ± 0.095; (pdr5∆) 3.5 ± 0.12; (san1∆) 3.39 ± 0.15; (ubr1∆) 3.36 ± 0.073.
The matching figures for VDQEMLYEIILAANYLN [SKP1]: 1.63 ± 0.051, 1.72 ± 0.05, 1.92 ± 0.093 and 1.84 ± 0.057.
For VDSRNETDHKTNENGET [SRB4] the same measures were 3.26 ± 0.16, 2.75 ± 0.18, 2.77 ± 0.098 and 3.27 ± 0.19.
In the case of VDSWDREFLKVDQEMLY [SKP1], the protein stability index runs as follows: (doa10∆) 3.43 ± 0.12; (pdr5∆) 3.29 ± 0.078; (san1∆) 3.21 ± 0.1; (ubr1∆) 3.26 ± 0.086.
For VDTSTELESMLEDLKNT [RRP6] the same measures were 3.56 ± 0.24, 3.03 ± 0.14, 3.46 ± 0.11 and 3.13 ± 0.054.
The matching figures for VEEKPGDRGALARASGN [RPL2A]: 2.95 ± 0.12, 3.23 ± 0.13, 3.37 ± 0.092 and 3.13 ± 0.11.
VEELPTFHDYDMVKLDI [RRP42]: the protein stability index (doa10∆) came to 2.51 ± 0.055, the protein stability index (pdr5∆) came to 2.75 ± 0.063, the protein stability index (san1∆) stood at 2.87 ± 0.045 and the protein stability index (ubr1∆) was found to be 3.13 ± 0.033.
Regarding VEFKLPKELVPSHEKLK [CDC53], the protein stability index reads like this: (doa10∆) 2.37 ± 0.054; (pdr5∆) 2.24 ± 0.045; (san1∆) 2.24 ± 0.071; (ubr1∆) 2.08 ± 0.045.
For VEITFGKEFGDVSVKMG [RRP45] the same measures were 1.38 ± 0.073, 1.68 ± 0.083, 1.32 ± 0.19 and 1.79 ± 0.12.
Consider VEKTEKPKKPKGRAYKR [RPS30A], for which the protein stability index was 3.16 ± 0.098 (doa10∆), 3.24 ± 0.091 (pdr5∆), 3.07 ± 0.06 (san1∆) and 3.05 ± 0.07 (ubr1∆).

Source of the values: the supplement of paper PMC9732359.
